In patent CN108727490A (UNIV TSINGHUA; GUANGZHOU 8TH PEOPLES HOSPITAL, dated 2018):

Target: T1, E-His6融合蛋白 (寨卡病毒 (Zika virus), UniProt A0A024B7W1 292-693)
T1 construct: also called 寨卡病毒的E蛋白; E蛋白
Assay: ELISA screen of memory B cell culture supernatants on coated E-His6 fusion protein; the antibody genes were cloned from positive wells

T1 sequence (A0A024B7W1 292-693, tags left off): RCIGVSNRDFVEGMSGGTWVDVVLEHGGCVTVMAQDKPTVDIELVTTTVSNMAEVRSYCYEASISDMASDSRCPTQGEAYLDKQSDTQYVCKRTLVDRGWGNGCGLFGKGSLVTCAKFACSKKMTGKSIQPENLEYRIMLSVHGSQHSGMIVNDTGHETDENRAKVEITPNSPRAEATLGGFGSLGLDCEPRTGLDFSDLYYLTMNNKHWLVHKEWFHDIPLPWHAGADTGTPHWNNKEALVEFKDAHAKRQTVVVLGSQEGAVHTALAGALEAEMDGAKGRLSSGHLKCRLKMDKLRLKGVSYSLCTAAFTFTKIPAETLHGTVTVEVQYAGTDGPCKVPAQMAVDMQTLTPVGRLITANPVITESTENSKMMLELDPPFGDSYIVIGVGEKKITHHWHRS

B1: 单克隆抗体ZK2B10 (antibody, human IgG1, lambda, V domains shown)
VH: EVQLVQSGAEVKKPGASVKVSCKASGYTFTSGHTFPSYDINWVRQATGQGLEWMGWMNPNRGNTGYAQKFQGRVTMTRNTSINTAYMELSSLRSEDTAVYYCARVRSGTNYGSYYYYYYGMDVWGQGTTVTVSS
VL: SYELTQPPSASGTPGQRVTISCSGSSSNIGNNYVHWYQQLPGSAPKLLIYRNNQRPSGVPDRFSGSKSGTSGSLAISGLRSEDEADYYCASWDDSLSGHWVFGGGTKVTVLG
notes: also called ZK2B10抗体; IgG抗体
B1: binds.
